Laboratory results: publication PMC8614738 (2021)

Molecular target: oligomeric EF-Tu (^OligoEF-Tu), unfolded (UniProt P0CE47 1-394)
Test: ITC; 20 °C

Chain of oligomeric EF-Tu (^OligoEF-Tu), unfolded (P0CE47 whole entry): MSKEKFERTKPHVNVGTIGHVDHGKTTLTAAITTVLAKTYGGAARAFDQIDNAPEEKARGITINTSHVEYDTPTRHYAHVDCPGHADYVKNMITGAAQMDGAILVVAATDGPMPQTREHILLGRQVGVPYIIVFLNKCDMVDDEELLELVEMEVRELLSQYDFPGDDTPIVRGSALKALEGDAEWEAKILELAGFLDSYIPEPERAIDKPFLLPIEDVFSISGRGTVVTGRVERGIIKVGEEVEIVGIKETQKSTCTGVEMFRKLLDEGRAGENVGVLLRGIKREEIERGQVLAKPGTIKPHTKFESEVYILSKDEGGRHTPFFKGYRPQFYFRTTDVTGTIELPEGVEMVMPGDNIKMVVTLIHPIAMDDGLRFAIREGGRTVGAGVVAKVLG

B1: trigger factor (TF) (natural protein)
chain: MQVSVETTQGLGRRVTITIAADSIETAVKSELVNVAKKVRIDGFRKGKVPMNIVAQRYGASVRQDVLGDLMSRNFIDAIIKEKINPAGAPTYVPGEYKLGEDFTYSVEFEVYPEVELQGLEAIEVEKPIVEVTDADVDGMLDTLRKQQATWKEKDGAVEAEDRVTIDFTGSVDGEEFEGGKASDFVLAMGQGRMIPGFEDGIKGHKAGEEFTIDVTFPEEYHAENLKGKAAKFAINLKKVEERELPELTAEFIKRFGVEDGSVEGLRAEVRKNMERELKSAIRNRVKSQAIEGLVKANDIDVPAALIDSEIDVLRRQAAQRFGGNEKQALELPRELFEEQAKRRVVVGLLLGEVIRTNELKADEERVKGLIEEMASAYEDPKEVIEFYSKNKELMDNMRNVALEEQAVEAVLAKAKVTEKETTFNELMNQQA
Kd: 1.86 µM
